The text below walks through data of publication PMC11602657, “Nap1 and Kap114 co-chaperone H2A-H2B and facilitate targeted histone release in the nucleus” (The Journal of Cell Biology, 2024).

Data set [1] deals with the molecule itself. As to the kind of experiment: SEC-MALS; proteins alone or binary mixtures at the indicated molar ratios to 80 µM Kap114; Assay buffer without glycerol; Nap1 counted as dimer. Background: Size exclusion chromatography separates by hydrodynamic size, large species first.
Another data set deals with T1, Kap114 (S. cerevisiae, UniProt P53067 1-1004).
T1 construct: also called Sc Kap114; source: E. coli, expressed as GST-Kap114, purified (Glutathione Sepharose 4B, on-column TEV cleavage, SEC)
T1 sequence: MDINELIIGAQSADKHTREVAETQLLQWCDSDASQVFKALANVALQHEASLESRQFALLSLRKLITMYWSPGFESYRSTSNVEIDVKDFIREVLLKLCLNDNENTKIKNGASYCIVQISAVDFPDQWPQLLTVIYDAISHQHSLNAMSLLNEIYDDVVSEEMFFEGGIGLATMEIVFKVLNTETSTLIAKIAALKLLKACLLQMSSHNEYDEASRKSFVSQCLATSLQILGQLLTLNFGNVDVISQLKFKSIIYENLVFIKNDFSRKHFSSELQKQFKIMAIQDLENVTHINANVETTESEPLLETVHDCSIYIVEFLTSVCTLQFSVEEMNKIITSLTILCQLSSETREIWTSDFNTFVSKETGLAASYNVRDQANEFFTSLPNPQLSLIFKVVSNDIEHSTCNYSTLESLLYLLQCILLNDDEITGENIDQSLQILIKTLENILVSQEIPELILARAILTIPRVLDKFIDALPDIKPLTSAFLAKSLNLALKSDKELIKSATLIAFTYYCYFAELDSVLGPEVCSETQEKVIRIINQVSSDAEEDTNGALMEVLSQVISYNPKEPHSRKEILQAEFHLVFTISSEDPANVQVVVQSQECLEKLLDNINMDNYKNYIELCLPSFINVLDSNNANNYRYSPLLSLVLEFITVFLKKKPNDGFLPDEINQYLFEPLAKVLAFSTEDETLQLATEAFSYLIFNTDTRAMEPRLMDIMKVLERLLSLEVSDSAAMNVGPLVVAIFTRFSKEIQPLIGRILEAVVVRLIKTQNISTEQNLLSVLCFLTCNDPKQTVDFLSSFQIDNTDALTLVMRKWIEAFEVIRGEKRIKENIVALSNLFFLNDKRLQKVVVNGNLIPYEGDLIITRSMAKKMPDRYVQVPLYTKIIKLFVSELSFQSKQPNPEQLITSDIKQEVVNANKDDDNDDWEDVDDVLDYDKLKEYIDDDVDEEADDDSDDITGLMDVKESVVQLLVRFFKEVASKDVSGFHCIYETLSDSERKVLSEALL
The description is as above. To be noted: both partners purified.

Data set [2] deals with T2, MBP-Kap114 DDAA (D928A/D929A) (S. cerevisiae, UniProt P53067 1-1004, D928A | D929A).
T2 construct: Kap114, S. cerevisiae, h19loop mutant; source: E. coli BL21 Gold, purified; not shown: MBP, N-terminal, kept
T2 sequence (looked up): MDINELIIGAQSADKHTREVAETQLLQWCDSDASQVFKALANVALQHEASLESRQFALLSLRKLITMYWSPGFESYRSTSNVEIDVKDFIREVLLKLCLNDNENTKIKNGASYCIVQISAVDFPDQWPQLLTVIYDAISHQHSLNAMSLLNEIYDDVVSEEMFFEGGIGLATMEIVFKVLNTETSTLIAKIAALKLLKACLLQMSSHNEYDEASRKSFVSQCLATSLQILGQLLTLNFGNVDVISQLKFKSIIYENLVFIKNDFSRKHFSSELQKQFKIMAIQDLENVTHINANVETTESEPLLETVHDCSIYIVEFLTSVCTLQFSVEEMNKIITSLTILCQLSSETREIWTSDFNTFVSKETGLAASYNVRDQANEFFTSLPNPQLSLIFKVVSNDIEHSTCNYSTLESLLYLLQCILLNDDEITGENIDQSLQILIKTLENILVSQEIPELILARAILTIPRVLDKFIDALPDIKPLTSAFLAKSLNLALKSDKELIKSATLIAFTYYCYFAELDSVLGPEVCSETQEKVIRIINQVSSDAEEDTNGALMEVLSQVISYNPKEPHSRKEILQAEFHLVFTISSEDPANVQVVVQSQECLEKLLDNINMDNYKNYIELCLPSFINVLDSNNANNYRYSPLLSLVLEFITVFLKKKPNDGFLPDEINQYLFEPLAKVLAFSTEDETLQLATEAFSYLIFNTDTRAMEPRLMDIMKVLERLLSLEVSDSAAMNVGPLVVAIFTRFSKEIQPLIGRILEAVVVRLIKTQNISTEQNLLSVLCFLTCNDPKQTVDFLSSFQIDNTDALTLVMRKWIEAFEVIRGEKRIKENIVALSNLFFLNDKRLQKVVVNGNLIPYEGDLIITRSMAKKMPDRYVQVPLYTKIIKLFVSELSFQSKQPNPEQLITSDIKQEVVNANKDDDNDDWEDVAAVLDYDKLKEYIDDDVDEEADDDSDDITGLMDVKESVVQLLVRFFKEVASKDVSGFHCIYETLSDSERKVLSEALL
The data set can be described thus: pull-down; MBP-Kap114 (WT or mutant; or MBP alone) 1 µM immobilized on amylose resin, equimolar Nap1_(2) ± H2A-H2B (1 or 2 µM) ± Ran^GTP; Assay Buffer (20 mM HEPES pH 7.4, 150 mM NaCl, 2 mM MgCl2, 10% glycerol, 2 mM DTT), 30 min at 4°C; Coomassie-stained SDS-PAGE. The following applies: both partners purified.

Data set [3] addresses T3, MBP-Kap114 YDAA (Y939A/D942A) (S. cerevisiae, UniProt P53067 1-1004, Y939A | D942A).
T3 construct: Kap114, S. cerevisiae, h19loop mutant; source: E. coli BL21 Gold, purified; not shown: MBP, N-terminal, kept
T3 sequence (looked up): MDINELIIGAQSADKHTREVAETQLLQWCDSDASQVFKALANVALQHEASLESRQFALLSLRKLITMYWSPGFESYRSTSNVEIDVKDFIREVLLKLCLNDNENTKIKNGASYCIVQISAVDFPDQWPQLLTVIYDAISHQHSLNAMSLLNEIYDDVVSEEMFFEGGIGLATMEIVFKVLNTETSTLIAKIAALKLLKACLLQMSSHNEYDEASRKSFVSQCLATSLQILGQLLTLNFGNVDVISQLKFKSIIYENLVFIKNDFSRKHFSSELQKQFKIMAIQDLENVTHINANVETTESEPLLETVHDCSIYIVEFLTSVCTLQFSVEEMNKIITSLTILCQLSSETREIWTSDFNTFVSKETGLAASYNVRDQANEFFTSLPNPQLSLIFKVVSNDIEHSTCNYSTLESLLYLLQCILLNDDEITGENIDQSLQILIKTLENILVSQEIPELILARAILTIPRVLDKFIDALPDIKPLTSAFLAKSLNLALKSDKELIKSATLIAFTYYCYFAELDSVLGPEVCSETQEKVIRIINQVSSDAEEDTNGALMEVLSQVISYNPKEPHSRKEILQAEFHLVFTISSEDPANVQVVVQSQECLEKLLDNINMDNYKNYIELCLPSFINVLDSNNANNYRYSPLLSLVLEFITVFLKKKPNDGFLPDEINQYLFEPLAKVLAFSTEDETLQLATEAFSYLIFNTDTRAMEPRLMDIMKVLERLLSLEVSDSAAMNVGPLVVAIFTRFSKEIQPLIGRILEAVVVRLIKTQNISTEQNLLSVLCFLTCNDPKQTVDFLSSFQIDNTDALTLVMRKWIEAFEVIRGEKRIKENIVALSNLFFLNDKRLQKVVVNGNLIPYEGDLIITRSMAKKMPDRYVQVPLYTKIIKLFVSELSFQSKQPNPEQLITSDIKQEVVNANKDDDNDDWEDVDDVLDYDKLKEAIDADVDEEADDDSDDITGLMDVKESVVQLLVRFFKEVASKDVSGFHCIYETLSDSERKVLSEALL
The data set is described as above. The following applies: both partners purified.

Where “and” joins values, the source holds several entries; their conditions need not be identical. Equal entries are not always repeated.

B1: Nap1 FL (C200A, C249A, C272A) (natural protein, S. cerevisiae, UniProt P25293 1-417, looked up)
chain: MSDPIRTKPKSSMQIDNAPTPHNTPASVLNPSYLKNGNPVRAQAQEQDDKIGTINEEDILANQPLLLQSIQDRLGSLVGQDSGYVGGLPKNVKEKLLSLKTLQSELFEVEKEFQVEMFELENKFLQKYKPIWEQRSRIISGQEQPKPEQIAKGQEIVESLNETELLVDEEEKAQNDSEEEQVKGIPSFWLTALENLPIVADTITDRDAEVLEYLQDIGLEYLTDGRPGFKLLFRFDSSANPFFTNDILAKTYFYQKELGYSGDFIYDHAEGAEISWKDNAHNVTVDLEMRKQRNKTTKQVRTIEKITPIESFFNFFDPPKIQNEDQDEELEEDLEERLALDYSIGEQLKDKLIPRAVDWFTGAALEFEFEEDEEEADEDEDEEEDDDHGLEDDDGESAEEQDDFAGRPEQAPECKQS
notes: Nap1 (nucleosome assembly protein 1), S. cerevisiae, full length (FL), with C200A, C249A, C272A for specific labeling on 414C; pHAT4 vector, gift from Sheena D'Arcy; Counted as a dimer (Nap1_(2)) in all molar ratios; alone a mixture of dimers and tetramers; also called Nap1_(2); Nap1_(2) FL; source: E. coli BL21 gold, purified (Ni-NTA, TEV cleavage, HiTrap Q, Superdex S200)
As a reminder, the stoichiometry N is a count of units in the complex or per binding partner. As to B1, the “stoichiometry N” value was 2 and 4 in data set [1]; 1 with Kap114. Moreover, the binding result in data set [2] and in data set [3] was “binds” throughout.
